Molecular target: Kv4.2-T1 domain (tetramerization domain of Kv4.2) with a poly-His tag at the NH2 terminus
Assay: SEC

Sequence of Kv4.2-T1 domain (tetramerization domain of Kv4.2) with a poly-His tag at the NH2 terminus (Q63881 whole entry, the tested form may be a part): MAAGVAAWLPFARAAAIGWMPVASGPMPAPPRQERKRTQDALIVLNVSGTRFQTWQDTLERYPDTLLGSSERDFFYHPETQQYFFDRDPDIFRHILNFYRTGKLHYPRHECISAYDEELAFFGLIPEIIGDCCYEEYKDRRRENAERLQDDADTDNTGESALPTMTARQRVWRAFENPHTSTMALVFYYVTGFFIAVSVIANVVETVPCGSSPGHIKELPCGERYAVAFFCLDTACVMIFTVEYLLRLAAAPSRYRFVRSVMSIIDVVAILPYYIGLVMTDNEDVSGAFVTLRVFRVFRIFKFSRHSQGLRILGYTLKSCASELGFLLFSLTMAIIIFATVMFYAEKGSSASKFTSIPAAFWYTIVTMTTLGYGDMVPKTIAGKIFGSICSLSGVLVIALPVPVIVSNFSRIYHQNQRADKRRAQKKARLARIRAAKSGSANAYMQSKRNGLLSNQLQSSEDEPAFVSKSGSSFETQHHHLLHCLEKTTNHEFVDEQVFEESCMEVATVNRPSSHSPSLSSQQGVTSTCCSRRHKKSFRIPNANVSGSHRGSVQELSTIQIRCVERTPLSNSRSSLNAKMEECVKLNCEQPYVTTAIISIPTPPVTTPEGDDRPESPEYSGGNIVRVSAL

stoichiometry N: 4
Substance: Kv4.2-T1 domain (tetramerization domain of Kv4.2) with a poly-His tag at the NH2 terminus (domain or fragment)
